Assay results reported in patent US8728478.
Where “and” joins values, the source holds several entries; their conditions need not be identical. Equal values may be shown once.

Columns and labels:
[1] = target: Escherichia coli heat-stable enterotoxin A (STa), purified from a bovine ETEC K99+ isolate (Escherichia coli (ETEC isolated from a diarrheic neonatal calf)); experiment: indirect ELISA on plate-bound STa, serum dilution 10^-5, pre-immunization serum
[2] = target: Escherichia coli heat-stable enterotoxin A (STa), purified from a bovine ETEC K99+ isolate (Escherichia coli (ETEC isolated from a diarrheic neonatal calf)); experiment: indirect ELISA on plate-bound STa, serum dilution 10^-4, pre-immunization serum
[3] = target: Escherichia coli heat-stable enterotoxin A (STa), purified from a bovine ETEC K99+ isolate (Escherichia coli (ETEC isolated from a diarrheic neonatal calf))
[4] = target: Escherichia coli heat-stable enterotoxin A (STa), purified from a bovine ETEC K99+ isolate (Escherichia coli (ETEC isolated from a diarrheic neonatal calf)); experiment: avidity ELISA on plate-bound STa, 5 M ammonium thiocyanate, Baseline
[5] = target: Escherichia coli heat-stable enterotoxin A (STa), purified from a bovine ETEC K99+ isolate (Escherichia coli (ETEC isolated from a diarrheic neonatal calf)); experiment: STa-binding indirect ELISA, end titer
[6] = target: Escherichia coli heat-stable enterotoxin A (STa), purified from a bovine ETEC K99+ isolate (Escherichia coli (ETEC isolated from a diarrheic neonatal calf)); experiment: indirect ELISA on plate-bound STa, serum dilution 10^-6, pre-immunization serum
[7] = target: Escherichia coli heat-stable enterotoxin A (STa), purified from a bovine ETEC K99+ isolate (Escherichia coli (ETEC isolated from a diarrheic neonatal calf)); experiment: indirect ELISA on plate-bound STa, serum dilution 10^-3, pre-immunization serum

baseline (pre-immunization) rabbit serum (antibody)
mean OD (405 nm) [1]: 0.033 OD | mean OD (405 nm) [2]: 0.232 OD | Avidity Index (%) [3]: 4.7% and 3% and 0% | OD at 405 nm with 5 M ammonium thiocyanate [4]: 0.017 OD and 0.043 OD and 0.04 OD | ELISA Titer (reciprocal serum dilution) [5]: 0 | mean OD (405 nm) [6]: 0.039 OD | mean OD (405 nm) [7]: 0.864 OD
